The data set deals with the molecule itself. Description: cross-linking; Mock-7721, GnT-V-7721, Mock-HT29 and GnT-V-HT29 cells grown to confluence, cell-surface proteins cross-linked with 3 mM BS3 for 2 hours at 4°C (on ice), stopped with 20 mM Tris-Cl, SDS lysis, immunoblot for PTPRT; dimer and monomer bands quantified with Image J.

B1: receptor protein tyrosine phosphatase rho (PTPRT) (receptor, human (endogenous in SMMC-7721 and HT29), UniProt O14522 26-1441, looked up)
chain: QSAAGGCSFDEHYSNCGYSVALGTNGFTWEQINTWEKPMLDQAVPTGSFMMVNSSGRASGQKAHLLLPTLKENDTHCIDFHYYFSSRDRSSPGALNVYVKVNGGPQGNPVWNVSGVVTEGWVKAELAISTFWPHFYQVIFESVSLKGHPGYIAVDEVRVLAHPCRKAPHFLRLQNVEVNVGQNATFQCIAGGKWSQHDKLWLQQWNGRDTALMVTRVVNHRRFSATVSVADTAQRSVSKYRCVIRSDGGSGVSNYAELIVKEPPTPIAPPELLAVGATYLWIKPNANSIIGDGPIILKEVEYRTTTGTWAETHIVDSPNYKLWHLDPDVEYEIRVLLTRPGEGGTGPPGPPLTTRTKCADPVHGPQNVEIVDIRARQLTLQWEPFGYAVTRCHSYNLTVQYQYVFNQQQYEAEEVIQTSSHYTLRGLRPFMTIRLRLLLSNPEGRMESEELVVQTEEDVPGAVPLESIQGGPFEEKIYIQWKPPNETNGVITLYEINYKAVGSLDPSADLSSQRGKVFKLRNETHHLFVGLYPGTTYSFTIKASTAKGFGPPVTTRIATKISAPSMPEYDTDTPLNETDTTITVMLKPAQSRGAPVSVYQLVVKEERLQKSRRAADIIECFSVPVSYRNASSLDSLHYFAAELKPANLPVTQPFTVGDNKTYNGYWNPPLSPLKSYSIYFQALSKANGETKINCVRLATKGASTQNSNTVEPEKQVDNTVKMAGVIAGLLMFIIILLGVMLTIKRRRNAYSYSYYLKLAKKQKETQSGAQREMGPVASADKPTTKLSASRNDEGFSSSSQDVNGFTDGSRGELSQPTLTIQTHPYRTCDPVEMSYPRDQFQPAIRVADLLQHITQMKRGQGYGFKEEYEALPEGQTASWDTAKEDENRNKNRYGNIISYDHSRVRLLVLDGDPHSDYINANYIDGYHRPRHYIATQGPMQETVKDFWRMIWQENSASIVMVTNLVEVGRVKCVRYWPDDTEVYGDIKVTLIETEPLAEYVIRTFTVQKKGYHEIRELRLFHFTSWPDHGVPCYATGLLGFVRQVKFLNPPEAGPIVVHCSAGAGRTGCFIAIDTMLDMAENEGVVDIFNCVRELRAQRVNLVQTEEQYVFVHDAILEACLCGNTAIPVCEFRSLYYNISRLDPQTNSSQIKDEFQTLNIVTPRVRPEDCSIGLLPRNHDKNRSMDVLPLDRCLPFLISVDGESSNYINAALMDSHKQPAAFVVTQHPLPNTVADFWRLVFDYNCSSVVMLNEMDTAQFCMQYWPEKTSGCYGPIQVEFVSADIDEDIIHRIFRICNMARPQDGYRIVQHLQYIGWPAYRDTPPSKRSLLKVVRRLEKWQEQYDGREGRTVVHCLNGGGRSGTFCAICSVCEMIQQQNIIDVFHIVKTLRNNKSNMVETLEQYKFVYEVALEYLSSF
modifications: N-glycans with β1,6 GlcNAc branches (tri- and tetra-antennary), more of them in GnT-V overexpressing cells; sites not mapped
notes: receptor protein tyrosine phosphatase rho (PTPRT), type IIB receptor-like PTP, endogenous in human SMMC-7721 and HT29 cells; One molecule for PTPRT of Mock and of GnT-V overexpressing cells: the two differ only in the amount of β1,6 GlcNAc branches on unmapped N-glycan sites; also called PTPRT (ρ); source: endogenous, SMMC-7721 and HT29 cells stably infected with pCDH-puro (Mock) or …
Turning to B1, the “intensity ratio of dimer to monomer, GnT-V cells against Mock cells” value was ~2 fold and the “stoichiometry N” value was 2.

For the origin of these results see publication PMC4028250, “β1,6 GlcNAc Branches-Modified PTPRT Attenuates Its Activity and Promotes Cell Migration by STAT3 Pathway” (PLoS ONE, 2014).
